In the supplement of paper PMC10724198:
± gives the standard deviation of the averaged measurements.

Test system: Saccharomyces cerevisiae
Test: protein stability index of tFT-peptide fusion (C-terminal peptide) (PSI (0-1 scale)); higher = more stable (slower turnover)
Details: genetic background: wild type; temperature: 30 C
Experimental: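 Multiplexed protein stability (MPS) profiling in S. cerevisiae. Random 12-aa peptides (tFT-X12 library) are fused to the C-terminus of a sfGFP-mCherry tandem fluorescent timer, after mCherry and a GGGS linker. Cells are FACS-sorted into 8 mCherry/sfGFP bins and deep-sequenced. The protein stability index (PSI) is the read-weighted bin average, scaled from 0 (unstable) to 1 (stable). Only peptides with >10 reads are reported; cells were grown at 30 °C in SC-His with glucose.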
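Note: PSI is a weighted mean of sequencing reads over stability bins, variants kept only with over 10 reads, mCherry proximal and sfGFP distal, peptide attached via GGGS linker.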

Sequence	protein stability index
LYVFFRFPSCLS	0.555 ± 0.018
IIGPFDSYVYGL	0.7 ± 0.0071
VTKESPSLCLCV	0.588 ± 0.041
KQGKKKDEWTRG	0.6945 ± 0.0023
PRSSVPATPHRR	0.72 ± 0.031
LARLFQLLERPW	0.688 ± 0.063
NTGEHVVPCKGT	0.659 ± 0.0067
LWPQFPPRQLVD	0.755 ± 0.069
KKKLKYKGIRTN	0.679 ± 0.049
VRRGGRARRRGS	0.698 ± 0.016
EIPGPLALSPAG	0.736 ± 0.015
PFRPPPRFPPPV	0.815 ± 0.042
ILGPPPRLPFPS	0.657 ± 0.012
RLVSPVLPLSRL	0.728 ± 0.031
SIKKFRTRKRRR	0.67 ± 0.12
SLGAPPAVVSSY	0.6822 ± 0.0033
NKARVDCNRSRC	0.781 ± 0.2
RRTEGKECEGEE	0.707 ± 0.064
AAWSGGGAGCWT	0.708 ± 0.041
RIRPPPAPPPPP	0.569 ± 0.019
SPSRPRPPPHAP	0.7624 ± 0.00086
HATFSLFLASCY	0.625 ± 0.011
DRVFLVDMGVMW	0.6632 ± 0.0014
PAGSRGRHSRER	0.712 ± 0.061
YGGCGFEEEGVR	0.73 ± 0.02

Sequence	protein stability index
SASLPSPPFPSP	0.649 ± 0.054
QTKEGSDRHRSS	0.748 ± 0.015
RALGDGRLGQDT	0.682 ± 0.014
PPPRPPLALSPP	0.646 ± 0.032
EAPRTPPSVPVN	0.7866 ± 0.0051
SCHEARWEVVMW	0.771 ± 0.17
VGWGWGGGVVLV	0.692 ± 0.0098
VSWGVALAVLRT	0.603 ± 0.029
WAVGRGLVLSST	0.684 ± 0.042
PPLPPSPLPLPP	0.664 ± 0.023
TPRTNATAMCTP	0.72 ± 0.038
GFDVGKRGRFGL	0.635 ± 0.09
QPDQSKPSTPEP	0.674 ± 0.051
PRLPPPPTPPLP	0.649 ± 0.16
FPGLFLFVLLPG	0.505 ± 0.013
QNLRLRKNIDIK	0.76 ± 0.014
YWFVFGEFSGGR	0.716 ± 0.042
IILKEDKSIKKR	0.6595 ± 0.0032
GGWRRDGSLCGA	0.733 ± 0.14
RKKREKKGRRGK	0.668 ± 0.0068
VALLKCTGTAQI	0.61 ± 0.033
RPSYRFFVRCSP	0.762 ± 0.053
LLRTHTTPKLGG	0.661 ± 0.051
FLGGVGGLVLIG	0.6672 ± 0.0047
SSPHRPTPSWPP	0.564 ± 0.0069

Sequence	protein stability index
ACREVAGAPGGL	0.671 ± 0.035
RKGRVLIMTYRK	0.682 ± 0.051
GLPHPPPHPFSL	0.763 ± 0.055
AKKKKKKIKTKH	0.8 ± 0.14
PPVGPPFPPLPH	0.784 ± 0.13
VRLIQLLFTLRT	0.53 ± 0.062
QTAAGLKPMSNR	0.777 ± 0.17
EERLGIIVRSDR	0.635 ± 0.079
FPWISPCCFTFP	0.64 ± 0.042
GAFLPLTCDIIC	0.598 ± 0.013
LFPRPSILKGVP	0.657 ± 0.091
GSGGSGLLLVEW	0.763 ± 0.02
KKKKRIQEKEII	0.63 ± 0.015
VFLRSGCSGGGE	0.799 ± 0.063
KKKKKQTKGKNK	0.688 ± 0.12
SHLGPYPAPARP	0.7185 ± 0.006
QKHTTKKTKTRY	0.728 ± 0.037
EWGKCGRGLYGC	0.666 ± 0.033
RPPLSSPPPPPP	0.701 ± 0.017
SQVRYIANRKDG	0.635 ± 0.091
SCRLALPPSFLS	0.706 ± 0.024
PSSFPDPFSPSL	0.735 ± 0.037
AGLGGGARQGAL	0.672 ± 0.024
SAPRRPPLIFPG	0.672 ± 0.11
KDCGSVRQGLRY	0.754 ± 0.04

Sequence	protein stability index
LSARVSYRITLR	0.599 ± 0.019
ATSPTSGGIHTA	0.662 ± 0.0092
SPPRSSRTHAPP	0.7108 ± 0.006
DFQRPGSFVFNG	0.658 ± 0.048
HTKHSQIIKHQS	0.641 ± 0.03
SRLMGLGLLCVG	0.5272 ± 0.0013
IGGAPRIETIYP	0.704 ± 0.074
WGGGGGGSGACL	0.6974 ± 0.0069
VSLGNVGYFGSE	0.734 ± 0.039
PPGLPPIRCPPT	0.631 ± 0.037
ISIFTCLGRFSL	0.677 ± 0.037
GGRRRPVPQGPR	0.649 ± 0.091
GRGLAEGRRITR	0.638 ± 0.062
RLYPVPARPSPS	0.629 ± 0.046
RLTDPHWALIQS	0.839 ± 0.2
AGGGWAVQVGMG	0.684 ± 0.042
LGACGWVDWWGL	0.774 ± 0.0083
WGLCIGTGWALG	0.708 ± 0.0092
RSPRLRSRVRVP	0.639 ± 0.083
PVLLPPCCLAIV	0.548 ± 0.026
AFMVFCRSLLAP	0.684 ± 0.014
AEAKAVKSVSVR	0.638 ± 0.042
GRASGGGLGRGR	0.593 ± 0.0086
VAVWGAIRHASN	0.718 ± 0.033
LCVGQVGLWVGR	0.703 ± 0.042

Sequence	protein stability index
RNLCHILRHERT	0.708 ± 0.088
PLPPTFPSPLPP	0.665 ± 0.008
PPTPSAPHRTRI	0.732 ± 0.026
LLPPQPYTPLHL	0.679 ± 0.13
EDSKLVSRLSRS	0.712 ± 0.082
GGGGGGGGVVVR	0.686 ± 0.016
RPGAFDNGLTLP	0.682 ± 0.055
WSSSRPASGSSA	0.708 ± 0.016
PPPPRSPPHPLL	0.69 ± 0.013
VYRGSQKQRAQG	0.685 ± 0.024
RSFPLRLLSLFV	0.585 ± 0.019
SPLPPPRSSSPP	0.76 ± 0.14
PPPPPASPPSAP	0.605 ± 0.063
ALCQEFAALEPR	0.726 ± 0.051
SPPICLPLFRVR	0.65 ± 0.017
PSPPLCPPRFSP	0.652 ± 0.025
EWVKFCFPIVQS	0.651 ± 0.048
PSYSPPPHPVHR	0.686 ± 0.05
PSPLPVSAPLLP	0.701 ± 0.039
APPHPPPPLPPP	0.6366 ± 0.0052
PPATPPRPPLPS	0.675 ± 0.057
SMYLPSSSDVLS	0.736 ± 0.014
RAMGDRSIRLDV	0.679 ± 0.02
PPPRRPPSPPSP	0.729 ± 0.021
CVIGRDGTDLWV	0.685 ± 0.0089

Sequence	protein stability index
NSRCSIQGAPLL	0.726 ± 0.041
LFRPNWLPLSNN	0.634 ± 0.018
VWRGPVVAAGWG	0.659 ± 0.018
GRGGEVALWRGV	0.6479 ± 0.0014
GGKREGEACRQE	0.662 ± 0.13
AEEAEVAGPRHC	0.777 ± 0.18
VRQRADSCEAHA	0.659 ± 0.056
RGLGLVGLGGGG	0.727 ± 0.012
PSPPPAPPPQPS	0.678 ± 0.052
KRGGRGEKAEGK	0.655 ± 0.024
LLPPPLPQAPPT	0.708 ± 0.03
FSVPRFVSISGI	0.6 ± 0.034
FTYFLPPPALCS	0.521 ± 0.02
CAVLGGGGVWGA	0.596 ± 0.035
PPPPPYPPCIPL	0.695 ± 0.048
PPPPPLPPLPCP	0.695 ± 0.03
YATLGPDRALVR	0.655 ± 0.0095
RPHPQRANAPGH	0.69373 ± 9.2e-06
AVGTAPVFLWFG	0.679 ± 0.0083
SFTLPPPLLSRT	0.747 ± 0.008
SPAPPSQFPSFA	0.818 ± 0.11
FDPTGPIGMRPT	0.653 ± 0.0017
VGCLGGCGCGGV	0.716 ± 0.07
KQKLEGTIIREL	0.674 ± 0.024
IENREVNIVERT	0.686 ± 0.011

Sequence	protein stability index
FGRFVLSCFDRK	0.661 ± 0.019
AVLSVGHWGSGL	0.69 ± 0.028
EGRAAETFVCAI	0.6429 ± 0.0055
TRRLEFPEPPMS	0.708 ± 0.061
DKERRSKNRERR	0.698 ± 0.07
GGGARSPSGCAN	0.712 ± 0.019
SGHGFFMCLFRC	0.552 ± 0.028
PPPTPRRPPCHT	0.668 ± 0.045
SKSNIAGIRKEL	0.6774 ± 0.0063
PPFRSPPRHDPL	0.662 ± 0.015
IQGRFYPLLEAH	0.606 ± 0.032
IYGCISVYYSSG	0.562 ± 0.014
PPDTPRTQKADT	0.755 ± 0.029
WLVCGRSFVFTL	0.549 ± 0.058
FAPRRDPMQVQY	0.6744 ± 0.0032
PIMESARGFLCV	0.658 ± 0.052
ALPLRFSSPGPS	0.659 ± 0.0068
GGWWVLCGGGWG	0.567 ± 0.025
PQLCSPLITIGV	0.5961 ± 0.0032
HPCKKEKLYHLK	0.594 ± 0.091
GGGGGCGVAGGV	0.71 ± 0.026
PQTVAHPPPPPR	0.688 ± 0.04
STLYLKRKKIKK	0.696 ± 0.033
SNGTRGSKLPAI	0.685 ± 0.055
GPGSWKWKSRRV	0.6634 ± 0.0034

Sequence	protein stability index
GRGVAPQGAVDA	0.714 ± 0.027
LFLPYLPPRPLL	0.7642 ± 0.0064
SLVCCGPVWVFL	0.573 ± 0.022
ELVGGEGIGGGL	0.581 ± 0.024
RPGGRLLVWVGG	0.55 ± 0.038
PFFVRNTFTCSL	0.735 ± 0.11
GGVVGWCAGKVV	0.642 ± 0.071
KNKTRSEISKNS	0.6974 ± 0.0017
CTISHSGHSGST	0.706 ± 0.058
SPPPLPPSPLSS	0.701 ± 0.046
AFMPGLLGDTYE	0.662 ± 0.022
LGTGRGAEGVIG	0.791 ± 0.071
IKKKKKKKKKRQ	0.668 ± 0.027
PRPRPSPLPPPS	0.751 ± 0.13
LPPSSLPLPCLL	0.793 ± 0.21
TEFFVFNRTQSL	0.671 ± 0.088
LFGAIPRVEHAD	0.718 ± 0.088
PVPPRLPLPAPL	0.757 ± 0.051
KGGKVGRAGEKG	0.644 ± 0.098
SSRFNVAPGGCR	0.745 ± 0.11
ASCRRGGAGCLR	0.735 ± 0.043
